Publication PMC4050190
Several values for one entry are separate records, joined by “and”; a condition that tells them apart may be missing. Equal values may be shown once.

Biological target: 6x His-p10 (pRSF duet, first multiple cloning site) (Sesbania mosaic virus)

Q: “untagged SeMV RdRp (pRSF duet) (domain or fragment)” was tested. Which in vitro RdRp assay (incorporation of αP32 UTP, filter binding, 2 μg protein, 30 °C, 1 h): activity of the RdRp-p10 complex against RdRp alone did it give?
A: 5 fold and 6 fold
